According to patent publication US20210395394A1:

target: Pan-species-specific antigen Plasmodium Lactate DeHydrogenase (Pan-PLDH) protein; assay: indirect ELISA at four coating concentrations, KD calculated from half-maximal OD

Binder	Kd [nM]
WT 1-6 (antibody, mouse IgG2b, kappa, V domains shown) VH: QVQLQQPGAELVRPGASVKLSCKASGTSFTNYFMNWVKQRPGQGLEWIGMINPSDSETRLNQKFKDKATLTVDKSSSTAYMQLSSLTAEDSAVYYCARSGDFYTYYWDYWGQGTTLTVSS VL: DIQLTQSPASLSASVGETVTITCRGSGNIHNYIAWYQQKQGKSPQLLVYNAKTVADGVPSRFSGSGSGTQYSLKINSLQPEDFGSYYCQSFWSSYTFGGGTKLEIKR	1.56
Mutation 1-12 (antibody, mouse IgG2b, kappa, V domains shown) VH: QVQLQQPGAELVRPGASVKLSCKASGYSFTNYWMNWVKQRPGQGLEWIGMIHPSDSETRINQKFKDKATLTVDKSSSTAYMQLSSLTAEDSAVYYCAKSGDFYTSYFDYWGQGTTLTVSS VL: DIQLTQSPASLSASVGETVTITCRGSGNLHNYLAWYQQKQGKSPQLLVYNAKTVADGVPSRFSGSGSGTQYSLKINSLQPEDFGSYYCQYFWSTYTFGGGTKLEIKR	0.118
WT 1-7 (antibody, mouse IgG2b, kappa, V domains shown) VH: QVQLQQPGAELVRPGASVKLSCKASGSSFTNYFMNWVKQRPGQGLEWIGMINPSDSETRVNQKFKDKATLTVDKSSSTAYMQLSSLTAEDSAVYYCARSGEFYTSYWDYWGQGTTLTVSS VL: DIQLTQSPASLSASVGETVTITCRGTGNVHNYIAWYQQKQGKSPQLLVYNAKTLADGVPSRFSGSGSGTQYSLKINSLQPEDFGSYYCQYFWSSYTFGGGTKLEIKR	0.757
Mutation 1-2 (antibody, mouse IgG2b, kappa, V domains shown) VH: QVQLQQPGAELVRPGASVKLSCKASGTSFTNYWMNWVKQRPGQGLEWIGMIHPSESETRVNQKFKDKATLTVDKSSSTAYMQLSSLTAEDSAVYYCAKSGDFYTTYFDYWGQGTTLTVSS VL: DIQLTQSPASLSASVGETVTITCRGSGNVHNYLAWYQQKQGKSPQLLVYNARTLADGVPSRFSGSGSGTQYSLKINSLQPEDFGSYYCQTFWSTYTFGGGTKLEIKR	0.338
Mutation 1-7 (antibody, mouse IgG2b, kappa, V domains shown) VH: QVQLQQPGAELVRPGASVKLSCKASGSSFTNYWMNWVKQRPGQGLEWIGMIHPSDSETRLNQKFKDKATLTVDKSSSTAYMQLSSLTAEDSAVYYCARSGDFYTYYFDYWGQGTTLTVSS VL: DIQLTQSPASLSASVGETVTITCRGSGNIHNYLAWYQQKQGKSPQLLVYNAKTVADGVPSRFSGSGSGTQYSLKINSLQPEDFGSYYCQSFWSTYTFGGGTKLEIKR	0.208
Mutation 1-3 (antibody, mouse IgG2b, kappa, V domains shown) VH: QVQLQQPGAELVRPGASVKLSCKASGTSFTNYWMNWVKQRPGQGLEWIGMIHPSDSETRINQKFKDKATLTVDKSSSTAYMQLSSLTAEDSAVYYCAKSGEFYTSYFDYWGQGTTLTVSS VL: DIQLTQSPASLSASVGETVTITCRGTGNVHNYLAWYQQKQGKSPQLLVYNAKTIADGVPSRFSGSGSGTQYSLKINSLQPEDFGSYYCQYFWSTYTFGGGTKLEIKR	0.098
Mutation 1-17 (antibody, mouse IgG2b, kappa, V domains shown) VH: QVQLQQPGAELVRPGASVKLSCKASGTSFTNYWMNWVKQRPGQGLEWIGMIHPSESETRVNQKFKDKATLTVDKSSSTAYMQLSSLTAEDSAVYYCAKSGEFYTTYFDYWGQGTTLTVSS VL: DIQLTQSPASLSASVGETVTITCRGTGNIHNYLAWYQQKQGKSPQLLVYNARTVADGVPSRFSGSGSGTQYSLKINSLQPEDFGSYYCQTFWSTYTFGGGTKLEIKR	0.37
Mutation 1-18 (antibody, mouse IgG2b, kappa, V domains shown) VH: QVQLQQPGAELVRPGASVKLSCKASGTSFTNYWMNWVKQRPGQGLEWIGMIHPSDSETRINQKFKDKATLTVDKSSSTAYMQLSSLTAEDSAVYYCARSGDFYTSYFDYWGQGTTLTVSS VL: DIQLTQSPASLSASVGETVTITCRGTGNIHNYLAWYQQKQGKSPQLLVYNAKTIADGVPSRFSGSGSGTQYSLKINSLQPEDFGSYYCQSFWSTYTFGGGTKLEIKR	0.567
Mutation 1-15 (antibody, mouse IgG2b, kappa, V domains shown) VH: QVQLQQPGAELVRPGASVKLSCKASGSSFTNYWMNWVKQRPGQGLEWIGMIHPSESETRINQKFKDKATLTVDKSSSTAYMQLSSLTAEDSAVYYCAKSGEFYTSYFDYWGQGTTLTVSS VL: DIQLTQSPASLSASVGETVTITCRGTGNVHNYLAWYQQKQGKSPQLLVYNARTVADGVPSRFSGSGSGTQYSLKINSLQPEDFGSYYCQTFWSTYTFGGGTKLEIKR	0.47
Mutation 1-1 (antibody, mouse IgG2b, kappa, V domains shown) VH: QVQLQQPGAELVRPGASVKLSCKASGYSFTNYWMNWVKQRPGQGLEWIGMIHPSESETRLNQKFKDKATLTVDKSSSTAYMQLSSLTAEDSAVYYCAKSGDFYTYYFDYWGQGTTLTVSS VL: DIQLTQSPASLSASVGETVTITCRGTGNLHNYLAWYQQKQGKSPQLLVYNARTVADGVPSRFSGSGSGTQYSLKINSLQPEDFGSYYCQYFWSTYTFGGGTKLEIKR	0.521
Mutation 1-11 (antibody, mouse IgG2b, kappa, V domains shown) VH: QVQLQQPGAELVRPGASVKLSCKASGYSFTNYWMNWVKQRPGQGLEWIGMIHPSESETRVNQKFKDKATLTVDKSSSTAYMQLSSLTAEDSAVYYCARSGEFYTTYFDYWGQGTTLTVSS VL: DIQLTQSPASLSASVGETVTITCRGSGNLHNYLAWYQQKQGKSPQLLVYNARTIADGVPSRFSGSGSGTQYSLKINSLQPEDFGSYYCQTFWSTYTFGGGTKLEIKR	0.465
Mutation 1-4 (antibody, mouse IgG2b, kappa, V domains shown) VH: QVQLQQPGAELVRPGASVKLSCKASGYSFTNYWMNWVKQRPGQGLEWIGMIHPSDSETRLNQKFKDKATLTVDKSSSTAYMQLSSLTAEDSAVYYCAKSGEFYTYYFDYWGQGTTLTVSS VL: DIQLTQSPASLSASVGETVTITCRGSGNIHNYLAWYQQKQGKSPQLLVYNAKTVADGVPSRFSGSGSGTQYSLKINSLQPEDFGSYYCQTFWSTYTFGGGTKLEIKR	0.596

Further binders by falling Kd, results first:

Kd [nM]	Binder
1.36	WT 1-8 (antibody, mouse IgG2b, kappa, V domains shown) VH: QVQLQQPGAELVRPGASVKLSCKASGTSFTNYFMNWVKQRPGQGLEWIGMINPSDSETRVNQKFKDKATLTVDKSSSTAYMQLSSLTAEDSAVYYCAKSGEFYTSYWDYWGQGTTLTVSS VL: DIQLTQSPASLSASVGETVTITCRGSGNVHNYIAWYQQKQGKSPQLLVYNAKTIADGVPSRFSGSGSGTQYSLKINSLQPEDFGSYYCQSFWSSYTFGGGTKLEIKR
0.664	Mutation 1-6 (antibody, mouse IgG2b, kappa, V domains shown) VH: QVQLQQPGAELVRPGASVKLSCKASGTSFTNYWMNWVKQRPGQGLEWIGMIHPSDSETRINQKFKDKATLTVDKSSSTAYMQLSSLTAEDSAVYYCARSGDFYTSYFDYWGQGTTLTVSS VL: DIQLTQSPASLSASVGETVTITCRGTGNIHNYLAWYQQKQGKSPQLLVYNAKTLADGVPSRFSGSGSGTQYSLKINSLQPEDFGSYYCQTFWSTYTFGGGTKLEIKR
0.621	WT 1-9 (antibody, mouse IgG2b, kappa, V domains shown) VH: QVQLQQPGAELVRPGASVKLSCKASGSSFTNYFMNWVKQRPGQGLEWIGMINPSESETRINQKFKDKATLTVDKSSSTAYMQLSSLTAEDSAVYYCAKSGEFYTYYWDYWGQGTTLTVSS VL: DIQLTQSPASLSASVGETVTITCRGTGNVHNYIAWYQQKQGKSPQLLVYNARTLADGVPSRFSGSGSGTQYSLKINSLQPEDFGSYYCQTFWSSYTFGGGTKLEIKR
0.616	Mutation 1-9 (antibody, mouse IgG2b, kappa, V domains shown) VH: QVQLQQPGAELVRPGASVKLSCKASGSSFTNYWMNWVKQRPGQGLEWIGMIHPSESETRINQKFKDKATLTVDKSSSTAYMQLSSLTAEDSAVYYCARSGEFYTSYFDYWGQGTTLTVSS VL: DIQLTQSPASLSASVGETVTITCRGSGNVHNYLAWYQQKQGKSPQLLVYNARTLADGVPSRFSGSGSGTQYSLKINSLQPEDFGSYYCQSFWSTYTFGGGTKLEIKR
0.532	Mutation 1-5 (antibody, mouse IgG2b, kappa, V domains shown) VH: QVQLQQPGAELVRPGASVKLSCKASGSSFTNYWMNWVKQRPGQGLEWIGMIHPSDSETRVNQKFKDKATLTVDKSSSTAYMQLSSLTAEDSAVYYCAKSGEFYTTYFDYWGQGTTLTVSS VL: DIQLTQSPASLSASVGETVTITCRGTGNIHNYLAWYQQKQGKSPQLLVYNAKTLADGVPSRFSGSGSGTQYSLKINSLQPEDFGSYYCQSFWSTYTFGGGTKLEIKR
0.531	Mutation 1-13 (antibody, mouse IgG2b, kappa, V domains shown) VH: QVQLQQPGAELVRPGASVKLSCKASGTSFTNYWMNWVKQRPGQGLEWIGMIHPSDSETRLNQKFKDKATLTVDKSSSTAYMQLSSLTAEDSAVYYCAKSGDFYTYYFDYWGQGTTLTVSS VL: DIQLTQSPASLSASVGETVTITCRGTGNLHNYLAWYQQKQGKSPQLLVYNAKTLADGVPSRFSGSGSGTQYSLKINSLQPEDFGSYYCQTFWSTYTFGGGTKLEIKR
0.525	Mutation 1-10 (antibody, mouse IgG2b, kappa, V domains shown) VH: QVQLQQPGAELVRPGASVKLSCKASGTSFTNYWMNWVKQRPGQGLEWIGMIHPSESETRLNQKFKDKATLTVDKSSSTAYMQLSSLTAEDSAVYYCARSGEFYTYYFDYWGQGTTLTVSS VL: DIQLTQSPASLSASVGETVTITCRGTGNLHNYLAWYQQKQGKSPQLLVYNARTVADGVPSRFSGSGSGTQYSLKINSLQPEDFGSYYCQYFWSTYTFGGGTKLEIKR
0.488	Mutation 1-14 (antibody, mouse IgG2b, kappa, V domains shown) VH: QVQLQQPGAELVRPGASVKLSCKASGSSFTNYWMNWVKQRPGQGLEWIGMIHPSDSETRVNQKFKDKATLTVDKSSSTAYMQLSSLTAEDSAVYYCAKSGDFYTTYFDYWGQGTTLTVSS VL: DIQLTQSPASLSASVGETVTITCRGSGNVHNYLAWYQQKQGKSPQLLVYNAKTIADGVPSRFSGSGSGTQYSLKINSLQPEDFGSYYCQSFWSTYTFGGGTKLEIKR
0.481	Mutation 1-8 (antibody, mouse IgG2b, kappa, V domains shown) VH: QVQLQQPGAELVRPGASVKLSCKASGYSFTNYWMNWVKQRPGQGLEWIGMIHPSDSETRVNQKFKDKATLTVDKSSSTAYMQLSSLTAEDSAVYYCARSGDFYTTYFDYWGQGTTLTVSS VL: DIQLTQSPASLSASVGETVTITCRGTGNVHNYLAWYQQKQGKSPQLLVYNAKTIADGVPSRFSGSGSGTQYSLKINSLQPEDFGSYYCQYFWSTYTFGGGTKLEIKR
0.411	Mutation 1-16 (antibody, mouse IgG2b, kappa, V domains shown) VH: QVQLQQPGAELVRPGASVKLSCKASGYSFTNYWMNWVKQRPGQGLEWIGMIHPSESETRLNQKFKDKATLTVDKSSSTAYMQLSSLTAEDSAVYYCAKSGEFYTYYFDYWGQGTTLTVSS VL: DIQLTQSPASLSASVGETVTITCRGSGNIHNYLAWYQQKQGKSPQLLVYNARTLADGVPSRFSGSGSGTQYSLKINSLQPEDFGSYYCQSFWSTYTFGGGTKLEIKR
